Results taken from patent US20080193457A1, “Ra Antigenic Peptides” (priority 2003, published 2008).

How the values were obtained:
HLA-DRB1*0401 = HLA-DRB1*0401 (Homo sapiens, UniProt P01903+P01911, A100K/A169T/F76Y/I96L/K127E/L162R/M171V/N62H/P40V/Q125Y/R42H/S133A/S149N/S66Y/V115G/V209L/W38E); conditions: reference peptides, literature (Table 1 footnote h); cited from earlier work
[1] = biological target: T1, HLA-DR4 molecules (HLA-DRB1*0401), purified, detergent-solubilized (human); assay: in vitro competition binding assay: purified HLA-DR4, biotinylated HA(307-319) reporter, synthetic competitor peptide
T1 construct: mature; The text says HLA-DR4

In the case of “M. tuberculosis Hsp65 (3-13) (KTIAYDEEARR; UniProt P9WPE7 3-13, looked up, fragment)”, the “HLA-DRB1*0401 binder” value (HLA-DRB1*0401) is listed as “weak HLA-DRB1*0401 binder”.

B1: GILT (192-205) (peptide)
peptide: GDRGMQLMHANAQR
notes: Found as eluted natural peptide and tested as synthetic peptide; also called Interferon-gamma-inducible lysosomal thiol reductase (192-205)
B1: binds [1].

NVVFVIDKSGSMSG (Synthetic peptide in the in vitro assay) [ITIH4 (274-287)]: binds [1].

B2: CYRB (359-375) (peptide)
peptide: ETMKMRYEHIDHTFEIQ
notes: Found as eluted natural peptide and tested as synthetic peptide
B2: binds [1].

B3: IL-1R (79-94) (peptide)
peptide: EKLWFVPAKVEDSGHY
notes: Found as eluted natural peptide and tested as synthetic peptide; also called Interleukin-1 receptor (79-94)
B3: binds [1].

B4: HPX (351-365) (peptide)
peptide: TPHGIILDSVDAAFI
notes: Synthetic peptide in the in vitro assay; also called Hemopexin (351-365)
B4: binds [1].

GSREIKSQQSEVTR (Synthetic peptide in the in vitro assay) [SH3BGRL3 (13-26)]: binds [1].

GPHDVHVQIETSPPARN (Synthetic peptide in the in vitro assay) [Fig1 (293-309)]: binds [1].

B5: PSMD8 (218-233) (peptide)
peptide: GPNNYYSFASQQQKPE
notes: as for B2
B5: binds [1].
